{"source": "patent US20030180295A1", "about": "(PHILADELPHIA HEALTH AND EDUCATION, published 2003)", "molecular_target": "T1, Thrombospondin (TSP-1) (UniProt P07996 19-1170, biotinylated in the ligand blot of Example 5)", "T1 construct": "also called thrombospondin-1; biotinylated TSP-1", "T1 sequence (P07996 19-1170 limits assumed)": "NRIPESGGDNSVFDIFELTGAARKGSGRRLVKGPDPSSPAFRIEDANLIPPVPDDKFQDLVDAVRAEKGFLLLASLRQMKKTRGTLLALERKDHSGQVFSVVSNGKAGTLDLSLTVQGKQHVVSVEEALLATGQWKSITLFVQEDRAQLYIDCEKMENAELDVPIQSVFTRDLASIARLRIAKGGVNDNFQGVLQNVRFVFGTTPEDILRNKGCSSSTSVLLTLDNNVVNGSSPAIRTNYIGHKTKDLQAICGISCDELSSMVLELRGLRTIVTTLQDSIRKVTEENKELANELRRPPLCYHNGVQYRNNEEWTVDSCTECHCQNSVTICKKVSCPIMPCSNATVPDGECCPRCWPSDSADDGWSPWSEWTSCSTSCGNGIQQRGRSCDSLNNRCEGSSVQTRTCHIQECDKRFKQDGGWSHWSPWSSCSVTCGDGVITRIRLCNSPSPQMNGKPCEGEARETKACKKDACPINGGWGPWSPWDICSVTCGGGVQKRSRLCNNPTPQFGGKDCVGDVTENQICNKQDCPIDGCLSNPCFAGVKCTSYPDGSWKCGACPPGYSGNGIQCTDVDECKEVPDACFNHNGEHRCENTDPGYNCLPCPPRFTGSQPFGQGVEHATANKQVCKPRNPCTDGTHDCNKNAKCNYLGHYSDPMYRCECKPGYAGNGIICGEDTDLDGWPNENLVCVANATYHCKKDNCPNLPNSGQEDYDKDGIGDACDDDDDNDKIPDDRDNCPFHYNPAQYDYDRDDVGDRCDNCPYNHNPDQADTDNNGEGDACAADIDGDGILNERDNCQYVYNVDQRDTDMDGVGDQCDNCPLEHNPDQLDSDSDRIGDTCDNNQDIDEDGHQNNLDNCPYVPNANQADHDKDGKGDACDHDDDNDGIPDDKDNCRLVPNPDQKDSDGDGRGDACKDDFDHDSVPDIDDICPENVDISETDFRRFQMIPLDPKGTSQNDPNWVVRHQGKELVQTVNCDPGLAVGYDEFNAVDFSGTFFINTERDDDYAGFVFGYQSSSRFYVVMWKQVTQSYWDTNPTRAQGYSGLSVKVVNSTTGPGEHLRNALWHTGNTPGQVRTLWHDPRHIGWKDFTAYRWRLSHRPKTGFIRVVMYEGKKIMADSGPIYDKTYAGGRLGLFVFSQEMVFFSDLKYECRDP", "test": "resonant mirror biosensor, peptide alone on immobilized TSP-1"}
{"binder": "PHSRN (also called random negative control peptide; control peptide)", "note": "[Pro-His-Ser-Arg-Asn (SEQ ID NO: 10)]", "values": [{"measurement": "binding result", "result": "no binding"}]}
